According to patent publication US20090068174:

T1: D-val-leu-lys-pNA
T1 chain: VLK

T2: human recombinant IFN-γ, P01579
T2 chain: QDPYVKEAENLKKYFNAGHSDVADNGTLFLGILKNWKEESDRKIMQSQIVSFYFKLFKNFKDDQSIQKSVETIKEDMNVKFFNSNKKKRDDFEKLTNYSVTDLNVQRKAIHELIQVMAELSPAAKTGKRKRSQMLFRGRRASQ

T3: mouse recombinant IFN-γ, P01580
T3 chain: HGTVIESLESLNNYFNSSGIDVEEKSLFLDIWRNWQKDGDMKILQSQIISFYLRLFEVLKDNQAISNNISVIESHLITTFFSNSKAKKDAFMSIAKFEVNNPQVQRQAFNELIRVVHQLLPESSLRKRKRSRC

T4: mouse recombinant TNF-α, P06804
T4 chain: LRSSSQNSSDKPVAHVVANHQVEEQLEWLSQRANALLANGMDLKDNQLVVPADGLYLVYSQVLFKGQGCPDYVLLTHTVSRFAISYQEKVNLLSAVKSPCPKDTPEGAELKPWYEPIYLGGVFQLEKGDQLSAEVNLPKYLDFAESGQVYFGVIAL

B1: Aspergillus oryzae deuterolysin (neutral protease II) (protein)
chain: TEVTDCKGDAESSLTTALSNAAKLANQAAEAAESGDESKFEEYFKTTDQQTRTTVAERLRAVAKEAGSTSGGSTTYHCNDPYGYCEPNVLAYTLPSKNEIANCDIYYSELPPLAQKCHAQDQATTTLHEFTHAPGVYQPGTEDLGYGYDAATQLSAQDALNNADSYALYANAIELKC
B2: Aspergillus oryzae 26 kDa protease (protein)
chain: HASADAWASSKAISSTSSPSSFKMRFISVSSLLLALAPALNAVPVEVAGSAQGLDVTLSQVGNTRIKAWKNTGSEDVTFVHLNFFKDAAPVQKVSLFRNATEVQFQGIKQRLITEGLSDDALTTLAPGATIEDEFDIASTSDLSEGGTITINSNGLVPITTDNKVTGYIPFTSNELSIDVDAAEAASVTQAVKILERRTKVTSCSGSRLSALQTALRNTVSLARAAATAAQSGSSSRFQEYFKTTSSSTRSTVAARLNAVANEAASTSSGSTTYYCSDVYGYCSSNVLAYTLPSYNIIANCDLYYSYLPALTSTCHAQDQATTTLHEFTHAPGVYSPGTDDLGYGYSAATALSASQALLNADTYALFANAVNLNC
B3: Aspergillus oryzae alkaline protease (protein)
chain: GLTTQKSAPWGLGSISHKGQQSTDYIYDTSAGEGTYAYVVDSGVNVDHEEFEGRASKAYNAAGGQHVDSIGHGTHVSGTIAGKTYGIAKKASILSVKVFQGESSSTSVILDGFNWAANDIVSKKRTSKAAINMSLGGGYSKAFNDAVENAFEQGVLSVVAAGNENSDAGQTSPASAPDAITVAAIQKSNNRASFSNFGKVVDVFAPGQDILSAWIGSSSATNTISGTSMATPHIVGLSLYLAALENLDGPAAVTKRIKELATKDWKDVKGSPNLLAYNGNA

Assays:
D-val-leu-lys-pNA = target: T1, D-val-leu-lys-pNA
[1] = target: human recombinant TNF-α, P01375
Sequence of human recombinant TNF-α, P01375 (P01375 77-233): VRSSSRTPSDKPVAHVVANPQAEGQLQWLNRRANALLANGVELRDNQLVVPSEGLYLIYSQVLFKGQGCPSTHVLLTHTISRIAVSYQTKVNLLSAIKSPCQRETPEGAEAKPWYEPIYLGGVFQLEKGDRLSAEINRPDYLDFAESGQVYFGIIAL

[2] = target: T2, human recombinant IFN-γ, P01579
[3] = target: T3, mouse recombinant IFN-γ, P01580
[4] = target: T4, mouse recombinant TNF-α, P06804

Protein	Specific activity: hydrolysis of Val-leu-lys-pNA (absorbance at 405 nm) (mOD/min/µg protein) (D-val-leu-lys-pNA)	Proteolysis by Western blotting (50 ng cytokine, 2.5-10 ng protease, overnight at 37° C.) [1]	Specific activity: hydrolysis of salmon protamine (ninhydrin assay) (nmoles Leucine/30 min./µg protein) (salmon protamine sulfate)	Proteolysis by Western blotting [2]	Proteolysis by Western blotting [3]	Proteolysis by Western blotting [4]
B1	2.3	deuterolysin was without significant effect	677	both deuterolysin and 26 kDa protease cleave human IFN-γ		
B2	2.1	Alkaline protease and, to a lesser extent, 26 kDa protease each produced a similar pattern of cleavage	679	both deuterolysin and 26 kDa protease cleave human IFN-γ		
B3	117	Alkaline protease and, to a lesser extent, 26 kDa protease each produced a similar pattern of cleavage	951	the protease did not cleave human IFN-γ	alkaline protease (AP) purified from the protease powder prepared according to Example 1 evidenced the same substrate specificity	alkaline protease (AP) purified from the protease powder prepared according to Example 1 evidenced the same substrate specificity
